Blank lines part the entries; values can stand above or below the binder they belong to.
Experiments:
Test in all cases: holdup assay
Set-up in all cases: key: below the threshold = too weak to quantify, mostly under pKd 3.1 to 4
GRIP1_3, Q9Y3R0 = target: T1, GRIP1_3, Q9Y3R0
T1 sequence (Q9Y3R0 247-346, limits assumed, looked up): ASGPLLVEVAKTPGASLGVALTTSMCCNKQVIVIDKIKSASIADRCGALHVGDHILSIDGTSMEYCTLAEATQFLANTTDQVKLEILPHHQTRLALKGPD

MPP7, Q5T2T1 = target: T2, MPP7, Q5T2T1
T2 sequence (Q5T2T1 134-230, limits assumed, looked up): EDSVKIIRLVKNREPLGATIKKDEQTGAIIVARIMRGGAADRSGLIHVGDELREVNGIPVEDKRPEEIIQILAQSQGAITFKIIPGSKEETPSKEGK

FRMPD2_1, Q68DX3 = target: FRMPD2_1, Q68DX3
IL16_3, Q14005 = target: IL16_3, Q14005
LIN7A, O14910 = target: T3, LIN7A, O14910
T3 sequence (O14910 103-200, limits assumed, looked up): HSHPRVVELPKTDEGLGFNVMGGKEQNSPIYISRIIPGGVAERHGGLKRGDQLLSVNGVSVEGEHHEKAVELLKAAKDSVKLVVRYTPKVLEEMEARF

MAST1, Q9Y2H9 = target: MAST1, Q9Y2H9
NHERF4_1, Q86UT5-2 = target: NHERF4_1, Q86UT5-2
Inadl_2, Q8NI35 = target: Inadl_2, Q8NI35
DLG4_2, P78352 = target: DLG4_2, P78352
CARD11, Q9BXL7 = target: T4, CARD11, Q9BXL7
T4 sequence (Q9BXL7 662-765, limits assumed, looked up): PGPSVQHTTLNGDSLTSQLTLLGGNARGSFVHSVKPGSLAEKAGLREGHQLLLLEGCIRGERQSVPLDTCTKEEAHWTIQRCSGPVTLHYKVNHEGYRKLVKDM

GRIP2_4, Q9C0E4 = target: GRIP2_4, Q9C0E4
GRIP2_7, Q9C0E4 = target: GRIP2_7, Q9C0E4
GRIP1_4, Q9Y3R0 = target: T5, GRIP1_4, Q9Y3R0
T5 sequence (Q9Y3R0 467-571, limits assumed, looked up): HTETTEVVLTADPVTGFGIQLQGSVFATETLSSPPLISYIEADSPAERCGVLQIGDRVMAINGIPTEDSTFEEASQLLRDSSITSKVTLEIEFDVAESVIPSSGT

DLG4_3, P78352 = target: DLG4_3, P78352
SNX27, Q96L92 = target: SNX27, Q96L92
PDZD7_3, Q9H5P4 = target: T6, PDZD7_3, Q9H5P4
T6 sequence (Q9H5P4 857-944, limits assumed, looked up): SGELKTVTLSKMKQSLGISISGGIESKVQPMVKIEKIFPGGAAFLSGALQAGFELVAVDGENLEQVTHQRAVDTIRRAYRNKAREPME

IL16_1, Q14005 = target: IL16_1, Q14005
MAGI1_2, Q96QZ7 = target: MAGI1_2, Q96QZ7
DLG1_2, Q12959 = target: DLG1_2, Q12959
GRID2IP_2, A4D2P6 = target: GRID2IP_2, A4D2P6
FRMPD2_3, Q68DX3 = target: FRMPD2_3, Q68DX3
SNTG2, Q9NY99 = target: T7, SNTG2, Q9NY99
T7 sequence (Q9NY99 68-166, limits assumed, looked up): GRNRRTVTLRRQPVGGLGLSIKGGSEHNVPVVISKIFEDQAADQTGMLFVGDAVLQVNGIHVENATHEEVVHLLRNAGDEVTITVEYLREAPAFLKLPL

SYNJ2BP, P57105 = target: T8, SYNJ2BP, P57105
T8 sequence (P57105 8-110, limits assumed, looked up): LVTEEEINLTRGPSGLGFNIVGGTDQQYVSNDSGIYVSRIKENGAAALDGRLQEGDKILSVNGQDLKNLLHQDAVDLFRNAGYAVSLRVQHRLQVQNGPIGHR

DVL3, Q92997 = target: T9, DVL3, Q92997
T9 sequence (Q92997 244-331, limits assumed, looked up): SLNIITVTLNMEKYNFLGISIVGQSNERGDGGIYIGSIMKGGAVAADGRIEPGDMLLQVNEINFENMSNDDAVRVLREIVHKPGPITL

NHERF4_4, Q86UT5 = target: NHERF4_4, Q86UT5
HTRA2, O43464 = target: HTRA2, O43464
GRIP1_7, Q9Y3R0 = target: T10, GRIP1_7, Q9Y3R0
T10 sequence (Q9Y3R0 999-1096, limits assumed, looked up): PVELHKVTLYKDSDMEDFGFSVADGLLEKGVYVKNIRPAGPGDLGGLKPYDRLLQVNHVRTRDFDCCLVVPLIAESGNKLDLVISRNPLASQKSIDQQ

NHERF4_2, Q86UT5 = target: NHERF4_2, Q86UT5
[1] = plain residues with an end cap or a label only (N-terminal biotin on a linker: ahx)
[2] = plain residues with an end cap or a label only (N-terminal biotin on a linker: ado-ado)

Chain of IL16_3, Q14005 (Q14005 1107-1207): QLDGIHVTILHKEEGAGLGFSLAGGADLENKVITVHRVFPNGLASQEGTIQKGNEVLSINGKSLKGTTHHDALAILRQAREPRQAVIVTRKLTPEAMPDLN
Chain of NHERF4_2, Q86UT5 (Q86UT5 220-308): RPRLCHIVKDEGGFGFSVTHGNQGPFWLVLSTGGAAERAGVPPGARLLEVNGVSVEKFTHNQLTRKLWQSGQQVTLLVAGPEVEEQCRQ
Chain of DLG1_2, Q12959 (Q12959 314-412): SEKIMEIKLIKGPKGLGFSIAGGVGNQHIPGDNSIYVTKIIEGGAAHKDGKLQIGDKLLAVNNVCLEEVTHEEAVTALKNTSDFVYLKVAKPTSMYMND
Chain of GRIP2_7, Q9C0E4 (Q9C0E4 934-1023): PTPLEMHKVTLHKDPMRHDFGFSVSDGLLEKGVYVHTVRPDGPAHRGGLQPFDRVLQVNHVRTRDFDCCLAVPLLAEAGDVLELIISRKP
Chain of HTRA2, O43464 (O43464 355-458): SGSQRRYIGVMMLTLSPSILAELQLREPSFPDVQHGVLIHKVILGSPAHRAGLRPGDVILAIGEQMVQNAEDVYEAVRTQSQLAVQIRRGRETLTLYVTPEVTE
Chain of NHERF4_1, Q86UT5-2 (Q86UT5 other isoform, or with tags, fused parts or gaps): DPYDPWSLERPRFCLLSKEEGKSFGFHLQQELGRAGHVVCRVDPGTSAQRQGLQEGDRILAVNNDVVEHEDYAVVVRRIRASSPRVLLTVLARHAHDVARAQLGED
Chain of MAST1, Q9Y2H9 (Q9Y2H9 962-1065): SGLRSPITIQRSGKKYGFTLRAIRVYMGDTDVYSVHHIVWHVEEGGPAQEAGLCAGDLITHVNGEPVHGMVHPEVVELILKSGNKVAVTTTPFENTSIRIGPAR
Chain of Inadl_2, Q8NI35 (Q8NI35 238-335): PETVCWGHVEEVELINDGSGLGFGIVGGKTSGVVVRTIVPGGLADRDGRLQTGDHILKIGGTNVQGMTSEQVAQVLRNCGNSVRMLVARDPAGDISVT
Chain of FRMPD2_3, Q68DX3 (Q68DX3 1073-1166): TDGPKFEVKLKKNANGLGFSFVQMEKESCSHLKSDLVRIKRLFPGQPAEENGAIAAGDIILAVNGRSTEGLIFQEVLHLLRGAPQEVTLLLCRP
Chain of IL16_1, Q14005 (Q14005 210-306): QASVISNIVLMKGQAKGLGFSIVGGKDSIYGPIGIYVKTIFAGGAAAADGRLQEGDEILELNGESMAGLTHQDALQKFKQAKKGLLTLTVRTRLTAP
Chain of GRID2IP_2, A4D2P6 (A4D2P6 272-370): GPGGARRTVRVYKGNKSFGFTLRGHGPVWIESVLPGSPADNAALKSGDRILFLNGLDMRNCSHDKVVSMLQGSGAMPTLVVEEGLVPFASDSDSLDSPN
Chain of GRIP2_4, Q9C0E4 (Q9C0E4 446-548): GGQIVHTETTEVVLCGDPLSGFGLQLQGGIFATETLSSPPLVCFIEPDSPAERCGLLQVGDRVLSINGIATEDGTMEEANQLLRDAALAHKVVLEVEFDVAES
Chain of NHERF4_4, Q86UT5 (Q86UT5 464-550): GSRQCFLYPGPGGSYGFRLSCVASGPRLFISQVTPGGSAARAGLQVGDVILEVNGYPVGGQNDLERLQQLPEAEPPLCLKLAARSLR
Chain of DLG4_2, P78352 (P78352 155-259): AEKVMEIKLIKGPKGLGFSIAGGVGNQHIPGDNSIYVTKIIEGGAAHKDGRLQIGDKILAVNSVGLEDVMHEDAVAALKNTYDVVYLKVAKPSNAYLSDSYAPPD
Chain of MAGI1_2, Q96QZ7 (Q96QZ7 456-580): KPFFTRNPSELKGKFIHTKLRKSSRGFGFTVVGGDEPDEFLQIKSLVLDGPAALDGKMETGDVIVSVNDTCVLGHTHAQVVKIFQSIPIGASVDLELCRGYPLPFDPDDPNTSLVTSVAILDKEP
Chain of FRMPD2_1, Q68DX3 (Q68DX3 770-861): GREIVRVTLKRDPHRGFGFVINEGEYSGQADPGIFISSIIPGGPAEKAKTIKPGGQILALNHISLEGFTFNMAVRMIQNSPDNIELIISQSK
Chain of DLG4_3, P78352 (P78352 306-403): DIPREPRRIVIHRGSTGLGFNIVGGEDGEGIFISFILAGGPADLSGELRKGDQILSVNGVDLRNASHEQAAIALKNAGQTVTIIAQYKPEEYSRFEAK

pKd (GRIP1_3, Q9Y3R0; [1]): below the threshold
pKd (MPP7, Q5T2T1; [1]): below the threshold
pKd (FRMPD2_1, Q68DX3; [1]): below the threshold
pKd (IL16_3, Q14005; [1]): below the threshold
pKd (LIN7A, O14910; [1]): below the threshold
pKd (MAST1, Q9Y2H9; [1]): 4.6
pKd (NHERF4_1, Q86UT5-2; [1]): 3.65
pKd (Inadl_2, Q8NI35; [1]): below the threshold
pKd (DLG4_2, P78352; [1]): below the threshold
pKd (CARD11, Q9BXL7; [1]): below the threshold
pKd (GRIP2_4, Q9C0E4; [1]): below the threshold
pKd (GRIP2_7, Q9C0E4; [1]): below the threshold
pKd (GRIP1_4, Q9Y3R0; [1]): below the threshold
pKd (DLG4_3, P78352; [1]): below the threshold
pKd (SNX27, Q96L92; [1]): 4.95
pKd (PDZD7_3, Q9H5P4; [1]): 3.51
pKd (IL16_1, Q14005; [1]): below the threshold
pKd (MAGI1_2, Q96QZ7; [1]): below the threshold
pKd (DLG1_2, Q12959; [1]): 3.54
pKd (GRID2IP_2, A4D2P6; [1]): below the threshold
pKd (FRMPD2_3, Q68DX3; [1]): below the threshold
pKd (SNTG2, Q9NY99; [1]): below the threshold
pKd (SYNJ2BP, P57105; [1]): below the threshold
pKd (DVL3, Q92997; [1]): below the threshold
pKd (NHERF4_4, Q86UT5; [1]): below the threshold
pKd (HTRA2, O43464; [1]): below the threshold
pKd (GRIP1_7, Q9Y3R0; [1]): below the threshold
pKd (NHERF4_2, Q86UT5; [1]): below the threshold
B1: ACE2, Q9BYF1 (peptide)
chain: QNTDDVQTSF

pKd (GRIP1_3, Q9Y3R0; [2]): below the threshold
pKd (MPP7, Q5T2T1; [2]): 4.27
pKd (FRMPD2_1, Q68DX3; [2]): below the threshold
pKd (IL16_3, Q14005; [2]): below the threshold
pKd (LIN7A, O14910; [2]): below the threshold
pKd (MAST1, Q9Y2H9; [2]): 4.08
pKd (NHERF4_1, Q86UT5-2; [2]): below the threshold
pKd (Inadl_2, Q8NI35; [2]): below the threshold
pKd (DLG4_2, P78352; [2]): below the threshold
pKd (CARD11, Q9BXL7; [2]): below the threshold
pKd (GRIP2_4, Q9C0E4; [2]): below the threshold
pKd (GRIP2_7, Q9C0E4; [2]): below the threshold
pKd (GRIP1_4, Q9Y3R0; [2]): below the threshold
pKd (DLG4_3, P78352; [2]): below the threshold
pKd (SNX27, Q96L92; [2]): below the threshold
pKd (PDZD7_3, Q9H5P4; [2]): below the threshold
pKd (IL16_1, Q14005; [2]): below the threshold
pKd (MAGI1_2, Q96QZ7; [2]): below the threshold
pKd (DLG1_2, Q12959; [2]): below the threshold
pKd (GRID2IP_2, A4D2P6; [2]): below the threshold
pKd (FRMPD2_3, Q68DX3; [2]): below the threshold
pKd (SNTG2, Q9NY99; [2]): below the threshold
pKd (SYNJ2BP, P57105; [2]): below the threshold
pKd (DVL3, Q92997; [2]): below the threshold
pKd (NHERF4_4, Q86UT5; [2]): 4.9
pKd (HTRA2, O43464; [2]): below the threshold
pKd (GRIP1_7, Q9Y3R0; [2]): below the threshold
pKd (NHERF4_2, Q86UT5; [2]): below the threshold
B2: PTTG2, Q9NZH5 (peptide)
chain: LPAVCYDIDI

pKd (GRIP1_3, Q9Y3R0; [2]): below the threshold
pKd (MPP7, Q5T2T1; [2]): below the threshold
pKd (FRMPD2_1, Q68DX3; [2]): below the threshold
pKd (IL16_3, Q14005; [2]): below the threshold
pKd (LIN7A, O14910; [2]): below the threshold
pKd (MAST1, Q9Y2H9; [2]): 4.1
pKd (NHERF4_1, Q86UT5-2; [2]): 4.34
pKd (Inadl_2, Q8NI35; [2]): below the threshold
pKd (DLG4_2, P78352; [2]): below the threshold
pKd (CARD11, Q9BXL7; [2]): below the threshold
pKd (GRIP2_4, Q9C0E4; [2]): below the threshold
pKd (GRIP2_7, Q9C0E4; [2]): below the threshold
pKd (GRIP1_4, Q9Y3R0; [2]): below the threshold
pKd (DLG4_3, P78352; [2]): 3.5
pKd (SNX27, Q96L92; [2]): below the threshold
pKd (PDZD7_3, Q9H5P4; [2]): 3.8
pKd (IL16_1, Q14005; [2]): below the threshold
pKd (MAGI1_2, Q96QZ7; [2]): below the threshold
pKd (DLG1_2, Q12959; [2]): below the threshold
pKd (GRID2IP_2, A4D2P6; [2]): below the threshold
pKd (FRMPD2_3, Q68DX3; [2]): below the threshold
pKd (SNTG2, Q9NY99; [2]): 3.7
pKd (SYNJ2BP, P57105; [2]): below the threshold
pKd (DVL3, Q92997; [2]): below the threshold
pKd (NHERF4_4, Q86UT5; [2]): below the threshold
pKd (HTRA2, O43464; [2]): below the threshold
pKd (GRIP1_7, Q9Y3R0; [2]): below the threshold
pKd (NHERF4_2, Q86UT5; [2]): below the threshold
B3: MKNK1, Q9BUB5 (peptide)
chain: GEDRSPPTAL
